From patent publication US5668264
pKd: −log10 of the molar value.

Biological target: PDGF AB (Homo sapiens) (UniProt P04085+P01127)
Assay: filter
Settings: 2'-F on all C and U; random starting pool

PDGF AB (Homo sapiens), sequence (P01127 82-190, chain 2 of 2, other chains not shown): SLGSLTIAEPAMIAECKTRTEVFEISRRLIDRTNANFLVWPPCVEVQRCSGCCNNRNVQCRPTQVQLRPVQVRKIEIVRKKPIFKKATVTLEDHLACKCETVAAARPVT

**Q.** “GGGAGACAAGAAUAACGCUCAANNNNNNNNNNNNNNNNNNNNNNNNNNNNNNNNNNNNNNNNNNNNNNNNNNUUCGACAGGAGGCUCACAACAGGC [random 2'-F pyrimidine RNA pool (50N)]” was tested. Which pKd did it give?
**A.** Its pKd is 7.46.
